Data reported in the nanobody polyreactivity screen of Harvey et al. (2022).

Test: yeast display, Sf9 membrane polyspecificity reagent, FACS + sequencing; frameworks hold sequencing errors
Summary of the method: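 Nanobodies came from a synthetic yeast display library in Saccharomyces cerevisiae BJ5465, induced with galactose for 36–48 hours and stained for 1 hour at 4 °C with 10% biotinylated, detergent-solubilized Sf9 membrane reagent. Cells were enriched on streptavidin microbeads and then FACS-sorted, with low and high (top ~1%) gates set on anti-HA fluorescence for expression and streptavidin fluorescence for reagent binding. Each polyreactivity label reflects the gate a clone came from. Genes were amplified by colony PCR, sequenced by MiSeq 2 × 250 and filtered by CDR length.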

| Sequence | polyreactivity (PSR sort gate) |
| --- | --- |
| QVQLVESGGGLVQAGGSLRLSCAASGSTFSEYVMGWYRQAPGKERELVAAIRSNGGSTYYADSVKGRFTISRDNAKNTVYLQMNSLKPEDTAVYYCNRVYSRRTYNSPLYDYWGQGTQVTVSS | high polyreactivity |
| QVQLVESGGGLVQAGGSLRLSCAASGSTFSFYAMGRYRQAPGKERELVAAISSSGDGTYYADSVKGRFTISRDNAKKTVYLQMNSLKPEDTAVYYCATGSPSGDEWGMDYWGQGTQVTVSS | low polyreactivity |
| QVQLVESGGGLVQAGGSLRLSCAASGSTFSGYAMGWYRHAPGKERELVAAISRRGTSTYYADSVKGRFTISRDNAKNTVYLQMNSLKPEDTAVYYCAARPSGYVIGGYGYWGQGTQVTVSS | high polyreactivity |
| QVQLVESGGGLVQAGGSLRLSCAASGSTFSGYAMGWYRQAPGKERDLVAAITKSGGRTYYADSVKGRFTISRDNAQNTVYLQMNSLKQEDTAVYYCAKAYPGTYREYDYWGQGTQVTVSS | high polyreactivity |
| QVQLVESGGGLVQAGGSLRLSCAASGSTFSGYAMGWYRQAPGKERELVAAITSGGITNYADSVKGRFTISLDNAKNTLYLQMNSLKPEDTAVYYCAKSVSGIGVGYDYWGQGTQVTVSS | low polyreactivity |
| QVQLVESGGGLVQAGGSLRLSCAASGSTFSGYAMGWYRQAPGKERELVGAISSSGGRTNYADSVKGRFTISRDNAKNTVYLQMNSLKPEDTAVYYCASVGPRTEYSGYRYYYWGQGTQVTVSS | high polyreactivity |
| QVQLVESGGGLVQAGGSLRLSCAASGSTFSGYAMRWYRQAPGKERELVATITRRGGNTYDADSVKGGFTISRDNAKNTVYLQMNSLKPEDTAVYYCAKEGRVQSPYHYWGQGTQVTVSS | low polyreactivity |
| QVQLVESGGGLVQAGGSLRLSCAASGSTFSHNAMGWYRQAPGKERELVAAISWSGGRTYADSVKGRFTISRDNAKNTVYLQMNSVKPDDTAVYYCNKVSYPSTSSSWFDYWGQGTQVTVSS | low polyreactivity |
| QVQLVESGGGLVQAGGSLRLSCAASGSTFSIYAMGWSRQAPGKERELVAAITGTVGSTYYADSVKGRFTISRDNAKNTVYLQMNSLNPEDTAVYYCAARQVNYDYDYWGQGTQVTVSS | low polyreactivity |
| QVQLVESGGGLVQAGGSLRLSCAASGSTFSIYARGWYRPAPGKERELVAAIRWSGGRTYYADSVKGRFTISRDNAKNTVYLQMNSLKPEDTAVYYCAAESTGSGYDYWGQGTQVTVSS | high polyreactivity |
| QVQLVESGGGLVQAGGSLRLSCAASGSTFSKNGMGWYRQAPGKERELVAAITVNGGSTSYADSVKGRFTISRDNAKNTVYLQMNSLKPEDTAVYYCARRRYSKYYYWGQGTQVTVSS | high polyreactivity |
| QVQLVESGGGLVQAGGSLRLSCAASGSTFSKYAMGWYRPAPGKERELVAAISSRGGSTYYADSVKGRFTISRDNAKNTVYLQMNSLKPEDTAVYYCATYYVYKLYYWGQGTQVTVSS | high polyreactivity |
| QVQLVESGGGLVQAGGSLRLSCAASGSTFSLNAMGWYRQAPGKERELVAAITRSGGSTYYADSVKGRFTISRDNAKNTVYLQMNSLKPEDTAVYYCAALPRWSHRYDDWGQGTQVTVSS | high polyreactivity |
| QVQLVESGGGLVQAGGSLRLSCAASGSTFSLYMGWYRQAPGKERELVAAITYSGGRTYYADSVKGRFTITLDNAKNTFYLQMNSVNPEDTAVYYCATVFNDLTVYEDWSRFDYWGQGTQVTVSS | low polyreactivity |
| QVQLVESGGGLVQAGGSLRLSCAASGSTFSNNAMGWYRQAPGKERELVAAITRRGTSTYYADSVKGRFTISRDNAKNTVYLQMISLKPEDTAVYYCAAVYKLRHKRPSYGSWGQGTQVTVSS | high polyreactivity |
| QVQLVESGGGLVQAGGSLRLSCAASGSTFSNNAMGWYRQAPGKERELVATISQSGGSTYYADSVKGRFTISRDNAKNTVYLQMNSLKPEDTAVYYCNAESYLTGWWYDYWGQGTQVTVSS | high polyreactivity |
| QVQLVESGGGLVQAGGSLRLSCAASGSTFSNYAMGWYRQAPGKERELVAGIDWSGGSTYYADSVKGRFTISRDNAKNTVYLQMNSLKPEDTAVYYCAKRVWYHGRKLRGYYWGQGTQVTVSS | low polyreactivity |
| QVQLVESGGGLVQAGGSLRLSCAASGSTFSPNDMGWYRQAPGKERELVADNSNYADSVKGRFTISRDNAKNTVYLQMNSLKPEDTAVYYCAAEWRGDRYRLYVVSWWYDYWGQGTQVTVSS | low polyreactivity |
| QVQLVESGGGLVQAGGSLRLSCAASGSTFSPYAMGWYRQAPGKERELVADISWPGGTTYYADSVKGRFTISRDNAKNTVYLQMNSLKPEDTAVYYCAVTYWDYTFQITYEYWGQGSQVTVSS | low polyreactivity |
| QVQLVESGGGLVQAGGSLRLSCAASGSTFSPYAMGWYRQAPGKERELVANITISGGSTYYADSVKGRFTISRDTAKNTVYLQMNSLKPEDTAVYYCNADSLIRWLFTVVILDYWGQGTLVTVSS | low polyreactivity |
| QVQLVESGGGLVQAGGSLRLSCAASGSTFSPYGMGWYRQAPGKERELVAAIRGRGGNTYYADSVKGRFTISRDNAKNTVYLQMNSLKPEDTAVYYCAAQSFAQYGWRYGDWGQGTQVTVSS | high polyreactivity |
| QVQLVESGGGLVQAGGSLRLSCAASGSTFSPYTMGWYRQAPGKERELVAAITWSGVTTYYADSVKGRFTISRDNAKNTVYLQMNSLKPEDSAVYYCAAGRTRRKFDYWGQGTQVTVSS | low polyreactivity |

| Sequence | polyreactivity (PSR sort gate) |
| --- | --- |
| QVQLVESGGGLVQAGGSLRLSCAASGSTFSRYAMGWYRQAPGKERELVAAISSSGGSTYYADSVKGRFTISRDNAKNTVYLQMNSLKPEDTAVYYCAVAVNGVSRIKYYYWGQGTQVTVSS | high polyreactivity |
| QVQLVESGGGLVQAGGSLRLSCAASGSTFSRYAMGWYRQAPGKERELVAAISWRGGRTYYADSVKGRFTISRDNAKNTVYLPMNSLKPEDTAVYYCNAVSSFTSPRYAYWGQGTQVTVSS | high polyreactivity |
| QVQLVESGGGLVQAGGSLRLSCAASGSTFSRYAMGWYRQAPGKEREMVAAINTRGGSTYYADSVKGRFTISRDNSKNTVYLQMNSLKPEDTAVYYCARRFYGFGPYYPFDYWGQGTQVTVSS | low polyreactivity |
| QVQLVESGGGLVQAGGSLRLSCAASGSTFSRYTMGWYRQAPGKERELVAAIRRSGASTYYADSVKGRFTISRDNAKITVYLQMNSLKPEDTAVYYCAVGRYRYGYWGHGTQVTVSS | high polyreactivity |
| QVQLVESGGGLVQAGGSLRLSCAASGSTFSSNAMGWYRQAPGKERELVAAITGSGGSTYYADSVKGRFTISRDNAKNTVYLQMNSLKPEDTAVYYCAAKWYGITYKYEYWGQGTQVTVSS | high polyreactivity |
| QVQLVESGGGLVQAGGSLRLSCAASGSTFSSNTMGWYRQAPGKERELVAAITTGGDTYYADSVKGRFTISRDNAKNTVYLQMNSLKPEDTAVYYCAATPTYWYLWSPYDYWGQGTQVTVSS | low polyreactivity |
| QVQLVESGGGLVQAGGSLRLSCAASGSTFSSNTMGWYRQAPGKEREMVAAITRRGGSTYYADSVKGRFTISRDNAKNTVYLQMNCLKPEDTAVYYCAARAYGGYGYWGQGTQVPVSS | low polyreactivity |
| QVQLVESGGGLVQAGGSLRLSCAASGSTFSSNVMGWYRQAPGKERELVAAITGSGSRTYYADSVKGRFTISRDNAKNTVYLQMNSLKPEDTAVYYCNTKGRSRETYGYDYWGQGTQVTVSS | high polyreactivity |
| QVQLVESGGGLVQAGGSLRLSCAASGSTFSSYAMGWYRQAPGKDRELVAAISSRGGRTYYADSVKGRFTISRDNAKNTVYLQMNSLKPEDTAVYYCNAPTSALRQGKDYGYWGQGTQVTVSS | high polyreactivity |
| QVQLVESGGGLVQAGGSLRLSCAASGSTFSSYAMGWYRQAPGKERELVAAINWSGGRTYYADSVKGRFTISRDNAKNTVYLQMNSLKPEDTAVYYCAAVGVYTYPYDYWGQGTQVTVSS | high polyreactivity |
| QVQLVESGGGLVQAGGSLRLSCAASGSTFSSYAMGWYRQAPGKERELVAAISTRSGSTYYADSVKGRFTISRDNAKNTVYLQMNSLKPEDTAVYYCAADGFYYDDGYWGQGTQVTVSS | low polyreactivity |
| QVQLVESGGGLVQAGGSLRLSCAASGSTFSSYGMGWYRQAPGKERELVAAISKRGGSTYYADSVKGRFTISRDNAKNTVYLQMNSLKPEDTAVYYCAAAVRKQGYSTLFDYWGQGTQVTVSS | high polyreactivity |
| QVQLVESGGGLVQAGGSLRLSCAASGSTFSSYVMGWDRQARGKERELVAAISSIGGSTYYADSVKGRFTISRDNAKNTVYLQMNSLKPEDTAVYYCAAEPPGSTYEGGYWGQGTQVTVSS | low polyreactivity |
| QVQLVESGGGLVQAGGSLRLSCAASGSTFSTNAMGCYRQAPGKERELVAAISGRGGRTYYADSVKGRFTISRDNAKNTVYLQMTSLKPEDTAVYYCNTDSYLRMDYWGQGTQVTVSS | high polyreactivity |
| QVQLVESGGGLVQAGGSLRLSCAASGSTFSTNAMGWYRQAPGQERELVAAISSSSGRTYYADSVKGRFTISRDNAKNTVYLQMNSLKPEDTAVYYCAAANQGYRSGRKGVQRFDYWGQGTQVTVSS | high polyreactivity |
| QVQLVESGGGLVQAGGSLRLSCAASGSTFSTNFMGWYRQAPGKERELVAAISTIGGSTYADSVKGRFTISRDNAKNTVYLQMNSLKPEDTAVYYCAAVFRVRRKTYGYWGQGTQVTVSS | high polyreactivity |
| QVQLVESGGGLVQAGGSLRLSCAASGSTFSTNVMGWSRQAPGKERELVAAISTIGGSTYADSVKGRFTISRDNAKNSVYLQMNSLKPEDTAVYDCAATRRWYPTKLYGYWGQGTQVTVSS | high polyreactivity |
| QVQLVESGGGLVQAGGSLRLSCAASGSTFSTYAMGWSRLAPGKERELVATISKRGGSTYYADSVKGRFTISRDNAKNTVYLQMNSLKPEDTAVYYCAARWQWLNGYYYWGQGTQVTVSS | high polyreactivity |
| QVQLVESGGGLVQAGGSLRLSCAASGSTFSTYAMGWYRQAPGKERELVAAISRTGGSTYYADSVKGRFTISRDNAKNTVYLQMNSLKPEDTAVYYCATGDSGGYDYWGQGTQVTVSS | low polyreactivity |
| QVQLVESGGGLVQAGGSLRLSCAASGSTFSVYAMGWYRQAPGKERELVAAITWSGGSTYYADSVKGRFTISRDNAKNTVYLQMNSLKPEDTAVYYCAARYGRIHWKANWPEYGYWGQGTQVTVSS | low polyreactivity |
| QVQLVESGGGLVQAGGSLRLSCAASGSTFSVYAMGWYRQAPGKERELVADNTRGGSTYADSVKGRFTISRDNAKNTVYLQMNSLKPEDTAVYYCAREEVTPYPLYWSTREYDYWGQGTQVTVSS | low polyreactivity |
